This is an account of results in publication PMC6939906, “Leucine zipper transcription factor-like 1 binds adaptor protein complex-1 and 2 and participates in trafficking of transferrin receptor 1” (PLoS ONE, 2020).

Settings in all cases: both partners purified
Assay [1] deals with T1, GST-β1 (glutathione S-transferase fused β1 subunit of AP-1) (human, UniProt Q10567 1-949).
T1 construct: cloned in pGEX-6P-1; also called GST-β1 (AP-1); GST-fused β1 subunit of AP-1; source: E. coli, purified (Glutathione Sepharose 4B)
T1 sequence (looked up): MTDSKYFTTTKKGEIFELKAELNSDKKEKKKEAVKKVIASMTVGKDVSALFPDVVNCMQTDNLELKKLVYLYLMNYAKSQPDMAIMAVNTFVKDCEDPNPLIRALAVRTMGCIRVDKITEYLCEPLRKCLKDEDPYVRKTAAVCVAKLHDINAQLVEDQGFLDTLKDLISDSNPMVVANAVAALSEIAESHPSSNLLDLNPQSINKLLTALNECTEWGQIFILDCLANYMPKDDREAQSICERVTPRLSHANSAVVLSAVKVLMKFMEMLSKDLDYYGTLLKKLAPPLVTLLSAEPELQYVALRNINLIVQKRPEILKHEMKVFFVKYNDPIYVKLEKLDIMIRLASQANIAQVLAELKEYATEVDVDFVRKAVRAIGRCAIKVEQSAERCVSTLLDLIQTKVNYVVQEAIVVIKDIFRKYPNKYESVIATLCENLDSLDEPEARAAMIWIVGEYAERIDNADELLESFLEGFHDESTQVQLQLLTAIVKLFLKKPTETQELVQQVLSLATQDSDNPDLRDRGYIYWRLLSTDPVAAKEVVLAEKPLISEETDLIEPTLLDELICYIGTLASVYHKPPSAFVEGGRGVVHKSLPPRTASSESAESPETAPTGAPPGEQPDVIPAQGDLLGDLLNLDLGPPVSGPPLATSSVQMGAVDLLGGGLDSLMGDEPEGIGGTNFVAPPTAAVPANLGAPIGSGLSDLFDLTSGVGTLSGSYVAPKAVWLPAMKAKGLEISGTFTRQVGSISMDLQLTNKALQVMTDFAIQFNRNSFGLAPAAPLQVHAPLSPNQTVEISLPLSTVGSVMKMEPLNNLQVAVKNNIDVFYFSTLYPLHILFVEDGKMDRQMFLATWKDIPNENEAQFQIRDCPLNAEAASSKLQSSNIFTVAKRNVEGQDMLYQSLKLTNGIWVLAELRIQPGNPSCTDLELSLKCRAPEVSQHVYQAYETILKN
As to the kind of experiment: pull-down; Factor Xa cleaved MBP-LZTFL1 incubated with GST-fused β1 subunit of AP-1 held on Glutathione Sepharose 4B.

The target in assay [2] is T2, GST-β2 (GST-fused β2 subunit of AP-2) (human, UniProt P63010 1-937).
T2 construct: cloned in pGEX-6P-1; also called GST-β2 (AP-2); AP2B1; source: E. coli, purified (Glutathione Sepharose 4B)
T2 sequence (looked up): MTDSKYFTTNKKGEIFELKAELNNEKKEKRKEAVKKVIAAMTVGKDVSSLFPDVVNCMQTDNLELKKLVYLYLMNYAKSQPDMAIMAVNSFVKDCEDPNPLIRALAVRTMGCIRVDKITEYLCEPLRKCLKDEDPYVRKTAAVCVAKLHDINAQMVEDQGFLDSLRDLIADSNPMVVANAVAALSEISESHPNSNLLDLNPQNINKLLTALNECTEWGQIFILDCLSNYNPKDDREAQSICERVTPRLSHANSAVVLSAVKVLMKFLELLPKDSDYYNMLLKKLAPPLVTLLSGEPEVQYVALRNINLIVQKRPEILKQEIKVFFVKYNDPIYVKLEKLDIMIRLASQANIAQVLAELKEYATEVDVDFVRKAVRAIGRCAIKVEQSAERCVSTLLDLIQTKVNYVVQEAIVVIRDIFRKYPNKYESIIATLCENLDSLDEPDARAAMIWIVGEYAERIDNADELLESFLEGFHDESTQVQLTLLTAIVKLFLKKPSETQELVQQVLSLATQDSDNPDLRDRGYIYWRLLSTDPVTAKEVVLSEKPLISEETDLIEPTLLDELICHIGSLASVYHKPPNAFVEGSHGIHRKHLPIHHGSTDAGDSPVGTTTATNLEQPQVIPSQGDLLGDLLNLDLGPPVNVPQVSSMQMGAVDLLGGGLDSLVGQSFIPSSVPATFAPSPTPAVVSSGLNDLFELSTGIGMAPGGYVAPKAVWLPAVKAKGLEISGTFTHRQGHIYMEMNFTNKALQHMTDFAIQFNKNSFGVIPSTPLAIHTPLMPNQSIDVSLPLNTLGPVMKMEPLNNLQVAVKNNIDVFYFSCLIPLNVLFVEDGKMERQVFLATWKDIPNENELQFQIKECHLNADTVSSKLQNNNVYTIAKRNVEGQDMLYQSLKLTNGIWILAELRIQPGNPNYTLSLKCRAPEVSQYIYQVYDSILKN
The experiment in a line: pull-down; MBP-fused proteins held on amylose resin, purified GST-fused proteins added, overnight at 4°C; blots with anti-MBP and anti-GST.

For assay [3], the target named is T1, GST-β1 (glutathione S-transferase fused …). Described as above.

B1: LZTFL1 from purified MBP-LZTFL1 cleaved by Factor Xa (natural protein, human, UniProt Q9NQ48-1 1-299, looked up)
chain: MAELGLNEHHQNEVINYMRFARSKRGLRLKTVDSCFQDLKESRLVEDTFTIDEVSEVLNGLQAVVHSEVESELINTAYTNVLLLRQLFAQAEKWYLKLQTDISELENRELLEQVAEFEKAEITSSNKKPILDVTKPKLAPLNEGGTAELLNKEILRLQEENEKLKSRLKTIEIQATNALDEKSKLEKALQDLQLDQGNQKDFIKAQDLSNLENTVAALKSEFQKTLNDKTENQKSLEENLATAKHDLLRVQEQLHMAEKELEKKFQQTAAYRNMKEILTKKNDQIKDLRKRLAQYEPED
notes: human LZTFL1, wild type; also called Factor Xa cleaved MBP-LZTFL1; source: E. coli, purified as MBP fusion (amylose resin), cleaved with Factor Xa
Take B1: in assay [1], the binding result is “binds”.

B2: MBP-LZTFL1 (maltose-binding protein fused with human LZTFL1) (natural protein, UniProt Q9NQ48-1 1-299, looked up)
chain: MAELGLNEHHQNEVINYMRFARSKRGLRLKTVDSCFQDLKESRLVEDTFTIDEVSEVLNGLQAVVHSEVESELINTAYTNVLLLRQLFAQAEKWYLKLQTDISELENRELLEQVAEFEKAEITSSNKKPILDVTKPKLAPLNEGGTAELLNKEILRLQEENEKLKSRLKTIEIQATNALDEKSKLEKALQDLQLDQGNQKDFIKAQDLSNLENTVAALKSEFQKTLNDKTENQKSLEENLATAKHDLLRVQEQLHMAEKELEKKFQQTAAYRNMKEILTKKNDQIKDLRKRLAQYEPED
notes: human LZTFL1, wild type; cloned in pMAL-c2X; also called MBP-fused LZTFL1; wild-type LZTFL1; source: E. coli, purified (amylose resin)
B2: the binding result in assay [2] and in assay [3] was “binds” each time.
